In this assay the target is S2-AAL, monovalent form of Aleuria aurantia lectin (Aleuria aurantia). The assay is described as follows: microfluidic displacement assay with fluorescence detection; S2-AAL immobilised on the PDMS/glass microchannel (APTES, glutaraldehyde), blocked with BSA; labeled lactoferrin 0.15 mg/ml in PBS perfused, washed with PBS; then fucose in PBS or PBS alone at 0.1 ul/min; fluorescence at the ….

The substance “Human lactoferrin isolated from breast milk, labeled with DyLight 488 (natural protein)” returned a % of initial fluorescence intensity left after 10 min perfusion with PBS only of 99%.

Source of the values: PMC6579771.
